Assay results taken from publication PMC3787845.

Key:
[1] = molecular target: His6-ChpT (Caulobacter crescentus); experiment: SEC
[2] = molecular target: His6-ChpT-A41R (Caulobacter crescentus); experiment: SEC
[3] = molecular target: His6-ChpT-D47A (Caulobacter crescentus); experiment: SEC
[4] = molecular target: His6-ChpT-D60A (Caulobacter crescentus); experiment: SEC
[5] = molecular target: His6-ChpT-G45R (Caulobacter crescentus); experiment: SEC
[6] = molecular target: His6-ChpT-L48M (Caulobacter crescentus); experiment: SEC
[7] = molecular target: His6-ChpT-L64D (Caulobacter crescentus); experiment: SEC
[8] = molecular target: His6-ChpT-N63R (Caulobacter crescentus); experiment: SEC
[9] = molecular target: His6-ChpT-S40V (Caulobacter crescentus); experiment: SEC
[10] = molecular target: His6-ChpT-S44Y (Caulobacter crescentus); experiment: SEC
[11] = molecular target: His6-ChpT-A41R (Caulobacter crescentus); experiment: SPR

## His6-ChpT (natural protein)
[1]
  stoichiometry N: 2

## His6-ChpT-A41R (natural protein)
[2]
  stoichiometry N: 2

## His6-ChpT-D47A (natural protein)
[3]
  stoichiometry N: 2

## His6-ChpT-D60A (natural protein)
[4]
  stoichiometry N: 2

## His6-ChpT-G45R (natural protein)
[5]
  stoichiometry N: 2

## His6-ChpT-L48M (natural protein)
[6]
  stoichiometry N: 2

## His6-ChpT-L64D (natural protein)
[7]
  stoichiometry N: 2

## His6-ChpT-N63R (natural protein)
[8]
  stoichiometry N: 2

## His6-ChpT-S40V (natural protein)
[9]
  stoichiometry N: 2

## His6-ChpT-S44Y (natural protein)
[10]
  stoichiometry N: 2

B1: CckA receiver domain (CckA-RD, amino acids 571–691) (domain or fragment)
chain: GRILFVEDEDAVRSVAARLLRARGYEVLEAADGEEALIIAEENAGTIDLLISDVIMPGIDGPTLLKKARGYLGTAPVMFISGYAEAEFSDLLEGETGVTFLPKPIDIKTLAERVKQQLQAA
[11]
  Kd: 397 µM
